Results reported in PMC3139092 (Journal of Biological Inorganic Chemistry, 2011).

T1: mutant Val87 (M11) (Priestia megaterium, UniProt P14779, E144G/E268V/E65G/F82I/F88V/G416S/H286Y/L189Q/R48L/Y199C)
T1 sequence (P14779 1-1049 R48L/E65G/F82I/F88V/E144G/L189Q/Y199C/E268V/H286Y/G416S): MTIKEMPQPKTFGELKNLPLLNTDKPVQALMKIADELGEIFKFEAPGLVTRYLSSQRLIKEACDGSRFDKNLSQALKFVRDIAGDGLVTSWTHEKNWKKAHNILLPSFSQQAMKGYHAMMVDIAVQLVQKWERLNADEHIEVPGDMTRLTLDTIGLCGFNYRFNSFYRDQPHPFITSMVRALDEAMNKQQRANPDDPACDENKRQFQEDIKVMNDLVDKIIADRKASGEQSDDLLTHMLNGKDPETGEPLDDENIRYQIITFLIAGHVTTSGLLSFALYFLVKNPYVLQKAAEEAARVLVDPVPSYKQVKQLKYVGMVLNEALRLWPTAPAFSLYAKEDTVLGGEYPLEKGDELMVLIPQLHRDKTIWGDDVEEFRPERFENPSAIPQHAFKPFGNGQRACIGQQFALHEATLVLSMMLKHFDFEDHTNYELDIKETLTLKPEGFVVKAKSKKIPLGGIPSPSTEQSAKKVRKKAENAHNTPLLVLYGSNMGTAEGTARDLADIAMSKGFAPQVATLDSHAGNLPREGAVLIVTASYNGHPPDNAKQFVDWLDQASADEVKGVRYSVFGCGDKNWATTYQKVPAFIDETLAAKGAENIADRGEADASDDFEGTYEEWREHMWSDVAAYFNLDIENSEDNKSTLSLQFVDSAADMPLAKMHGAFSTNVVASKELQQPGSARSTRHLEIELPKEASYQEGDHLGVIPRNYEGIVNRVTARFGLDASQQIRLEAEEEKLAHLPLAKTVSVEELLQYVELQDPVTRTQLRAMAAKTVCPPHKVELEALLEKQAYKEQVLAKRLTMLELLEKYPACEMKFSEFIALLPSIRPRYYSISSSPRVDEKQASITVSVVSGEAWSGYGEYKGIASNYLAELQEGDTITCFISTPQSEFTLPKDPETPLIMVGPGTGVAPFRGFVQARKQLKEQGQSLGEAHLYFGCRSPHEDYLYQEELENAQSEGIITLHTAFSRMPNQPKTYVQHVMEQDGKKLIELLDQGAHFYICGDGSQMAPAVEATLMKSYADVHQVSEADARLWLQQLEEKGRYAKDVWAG


What was measured:
mutant Val87 (M11) = target: T1, mutant Val87 (M11); type: biochemical, Bacillus megaterium; conditions: 1 μM ketoconazole
[1] = Alkoxyresorufin O-dealkylation by CYP102A1 M11 mutants and wild-type CYP102A1; type: biochemical; conditions: 20 µM alkoxyresorufin, 20 nM P450 BM3, 25 °C
[2] = Lauric acid induced NADPH consumption; type: biochemical; conditions: 0.1 mM lauric acid
[3] = Alkoxyresorufin-induced NADPH consumption; type: biochemical; conditions: 20 nM enzyme, 200 µM NADPH, 25 °C
[4] = benzyloxyresorufin as the substrate, data not shown

Molecule	Inhibition of lauric acid induced NADPH consumption (mutant Val87 (M11); 0.1 mM lauric acid)	Inhibition of substrate-induced NADPH consumption (mutant Val87 (M11); [4])	Inhibition of the O-dealkylation reaction (mutant Val87 (M11); [4])	Specific activity of alkoxyresorufin O-dealkylation, side chain n-Heptyl ([1]; substrate n-heptoxyresorufin)	Specific activity of alkoxyresorufin O-dealkylation, side chain n-Octyl ([1]; substrate n-octoxyresorufin)	Effect of lauric acid on NADPH consumption [2]	Specific activity of NADPH consumption, DMSO ([3]; no substrate, solvent DMSO (2%) only) [nmol NADPH/min/nmol P450]	Specific activity of alkoxyresorufin-induced NADPH consumption, side chain Ethyl ([3]; substrate ethoxyresorufin 20 µM)
CC(=O)N1CCN(c2ccc(OCC3COC(Cn4ccnc4)(c4ccc(Cl)cc4Cl)O3)cc2)CC1 (centres unmarked) [ketoconazole]	completely blocked	almost completely block	almost completely block	–	–	–	–	–
Wild type (Phe87): Cytochrome P450 BM3 (CYP102A1) from Bacillus megaterium, wild type, Phe at position 87 (protein, UniProt P14779 1-1049, looked up) Bifunctional cytochrome …: MTIKEMPQPKTFGELKNLPLLNTDKPVQALMKIADELGEIFKFEAPGRVTRYLSSQRLIKEACDESRFDKNLSQALKFVRDFAGDGLFTSWTHEKNWKKAHNILLPSFSQQAMKGYHAMMVDIAVQLVQKWERLNADEHIEVPEDMTRLTLDTIGLCGFNYRFNSFYRDQPHPFITSMVRALDEAMNKLQRANPDDPAYDENKRQFQEDIKVMNDLVDKIIADRKASGEQSDDLLTHMLNGKDPETGEPLDDENIRYQIITFLIAGHETTSGLLSFALYFLVKNPHVLQKAAEEAARVLVDPVPSYKQVKQLKYVGMVLNEALRLWPTAPAFSLYAKEDTVLGGEYPLEKGDELMVLIPQLHRDKTIWGDDVEEFRPERFENPSAIPQHAFKPFGNGQRACIGQQFALHEATLVLGMMLKHFDFEDHTNYELDIKETLTLKPEGFVVKAKSKKIPLGGIPSPSTEQSAKKVRKKAENAHNTPLLVLYGSNMGTAEGTARDLADIAMSKGFAPQVATLDSHAGNLPREGAVLIVTASYNGHPPDNAKQFVDWLDQASADEVKGVRYSVFGCGDKNWATTYQKVPAFIDETLAAKGAENIADRGEADASDDFEGTYEEWREHMWSDVAAYFNLDIENSEDNKSTLSLQFVDSAADMPLAKMHGAFSTNVVASKELQQPGSARSTRHLEIELPKEASYQEGDHLGVIPRNYEGIVNRVTARFGLDASQQIRLEAEEEKLAHLPLAKTVSVEELLQYVELQDPVTRTQLRAMAAKTVCPPHKVELEALLEKQAYKEQVLAKRLTMLELLEKYPACEMKFSEFIALLPSIRPRYYSISSSPRVDEKQASITVSVVSGEAWSGYGEYKGIASNYLAELQEGDTITCFISTPQSEFTLPKDPETPLIMVGPGTGVAPFRGFVQARKQLKEQGQSLGEAHLYFGCRSPHEDYLYQEELENAQSEGIITLHTAFSRMPNQPKTYVQHVMEQDGKKLIELLDQGAHFYICGDGSQMAPAVEATLMKSYADVHQVSEADARLWLQQLEEKGRYAKDVWAG	–	–	–	0.17 nmol resorufin/min/nmol P450	0.18 nmol resorufin/min/nmol P450	strongly stimulated	45	3,970 nmol NADPH/min/nmol P450
